# Literature values as cited in publication PMC5326574.
# How the values were obtained:
# ERK2 (Homo sapiens) = ERK2 (Homo sapiens) (UniProt P28482); test: NMR
# Prolactin (Homo sapiens) = Prolactin (Homo sapiens) (UniProt P01236); test: SPR
# [1] = biological target: Prolactin (second site) (Homo sapiens) (UniProt P01236)
# UniProt P28482, sequence (P28482 2-360): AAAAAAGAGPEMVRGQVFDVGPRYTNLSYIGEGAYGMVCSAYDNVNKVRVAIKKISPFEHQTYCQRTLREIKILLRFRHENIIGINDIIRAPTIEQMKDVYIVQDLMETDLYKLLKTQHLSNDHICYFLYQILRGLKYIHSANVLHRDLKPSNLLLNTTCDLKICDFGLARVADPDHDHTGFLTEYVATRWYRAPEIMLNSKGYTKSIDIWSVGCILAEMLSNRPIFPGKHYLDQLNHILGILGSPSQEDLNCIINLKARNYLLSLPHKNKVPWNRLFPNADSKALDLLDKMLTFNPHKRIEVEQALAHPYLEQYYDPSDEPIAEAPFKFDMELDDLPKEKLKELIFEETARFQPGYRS
Substance,Kd (ERK2 (Homo sapiens)),Kd (Prolactin (Homo sapiens)),Kd [1]
NHE1 C-terminal distal tail (NHE1cdt) (from UniProt P19634),30 µM,,
Prolactin receptor ECD (from UniProt P16471),,0.006 µM,33 µM
